Measured values taken from the Immune Epitope Database (IEDB).
One block for each sequence: values may come before it.

How the values were obtained:
HLA-A*01:01 = assay: IEDB peptide-MHC binding, purified MHC/competitive/fluorescence; ≥ and ≤ were set here for values at or beyond the usual limits of such assays
HLA-A*02:01 = assay: as above
HLA-A*03:01 = assay: as above
HLA-A*11:01 = assay: as above
HLA-A*24:02 = assay: as above
HLA-A*25:01 = assay: as above
HLA-A*29:02 = assay: as above
HLA-A*31:01 = assay: as above
HLA-A*68:02 = assay: as above
HLA-B*07:02 = assay: as above
HLA-B*08:01 = assay: as above
HLA-B*14:02 = assay: as above
HLA-B*18:01 = assay: as above
HLA-B*35:01 = assay: as above
HLA-B*37:01 = assay: as above
HLA-B*40:02 = assay: as above
HLA-B*44:03 = assay: as above
HLA-B*51:01 = assay: as above
HLA-B*53:01 = assay: as above
HLA-B*58:01 = assay: as above
HLA-C*14:02 = assay: IEDB peptide-MHC binding, purified MHC/direct/fluorescence; filed as Kd, often an IC50 or EC50 that approximates it; ≥ and ≤ were set here for values at or beyond the usual limits of such assays; details: source organism: Homo sapiens
[1] = source organism: Tarsius lariang

- IC50 (HLA-A*01:01; source organism: Homo sapiens): ≥ 20 µM
- IC50 (HLA-A*02:01; source organism: Homo sapiens): 0.131 µM
- IC50 (HLA-A*03:01; source organism: Homo sapiens): ≥ 20 µM
- IC50 (HLA-A*11:01; source organism: Homo sapiens): ≥ 20 µM
- IC50 (HLA-A*24:02; source organism: Homo sapiens): 0.0113 µM
- IC50 (HLA-A*25:01; source organism: Homo sapiens): ≥ 20 µM
- IC50 (HLA-A*29:02; source organism: Homo sapiens): 0.824 µM
- IC50 (HLA-A*31:01; source organism: Homo sapiens): ≥ 20 µM
- IC50 (HLA-A*68:02; source organism: Homo sapiens): 0.777 µM
- IC50 (HLA-B*07:02; source organism: Homo sapiens): ≥ 20 µM
- IC50 (HLA-B*08:01; source organism: Homo sapiens): ≥ 20 µM
- IC50 (HLA-B*14:02; source organism: Homo sapiens): ≥ 20 µM
- IC50 (HLA-B*18:01; source organism: Homo sapiens): ≥ 20 µM
- IC50 (HLA-B*35:01; source organism: Homo sapiens): ≥ 20 µM
- IC50 (HLA-B*37:01; source organism: Homo sapiens): ≥ 20 µM
- IC50 (HLA-B*40:02; source organism: Homo sapiens): ≥ 20 µM
- IC50 (HLA-B*44:03; source organism: Homo sapiens): ≥ 20 µM
- IC50 (HLA-B*51:01; source organism: Homo sapiens): ≥ 20 µM
- IC50 (HLA-B*53:01; source organism: Homo sapiens): ≥ 20 µM
- IC50 (HLA-B*58:01; source organism: Homo sapiens): ≥ 20 µM
- Kd (HLA-C*14:02): 0.575 µM
Sequence: SYMMDDLELI

- IC50 (HLA-A*01:01; [1]): ≥ 20 µM
- IC50 (HLA-A*02:01; [1]): ≥ 20 µM
- IC50 (HLA-A*03:01; [1]): ≥ 20 µM
- IC50 (HLA-A*11:01; [1]): ≥ 20 µM
- IC50 (HLA-A*24:02; [1]): 0.57 µM
- IC50 (HLA-A*25:01; [1]): ≥ 20 µM
- IC50 (HLA-A*29:02; [1]): ≥ 20 µM
- IC50 (HLA-A*31:01; [1]): ≥ 20 µM
- IC50 (HLA-A*68:02; [1]): ≥ 20 µM
- IC50 (HLA-B*07:02; [1]): ≥ 20 µM
- IC50 (HLA-B*08:01; [1]): ≥ 20 µM
- IC50 (HLA-B*14:02; [1]): ≥ 20 µM
- IC50 (HLA-B*18:01; [1]): 0.0432 µM
- IC50 (HLA-B*35:01; [1]): ≥ 20 µM
- IC50 (HLA-B*37:01; [1]): 0.394 µM
- IC50 (HLA-B*40:02; [1]): 0.0405 µM
- IC50 (HLA-B*44:03; [1]): ≥ 20 µM
- IC50 (HLA-B*51:01; [1]): ≥ 20 µM
- IC50 (HLA-B*53:01; [1]): ≥ 20 µM
- IC50 (HLA-B*58:01; [1]): ≥ 20 µM
Sequence: TEAEKWPFF
